Assay results: US20240026407A1, “MODIFICATION OF SAPONINS” (GLAXOSMITHKLINE BIOLOGICALS SA, priority 2020, published 2024)

Key:
Type in all cases: biochemical, Quillaja saponaria
[1] = Experiment 6-1: screening of rhamnosidases for derhamnosylation of saponins in treated bark extract (2%), QS-17 2296 to QS-18 2150 (PAR %); conditions: TBE 2%, pH 7.5, 30 degC, 18 h; TIC peak area ratio percent of rhamnosylated starting saponin to derhamnosylated product, LCMS/MS; negative controls 4.876, 5.225
[2] = Experiment 6-1: screening of rhamnosidases for derhamnosylation of saponins in treated bark extract (2%), QS-17 2310 to QS-18 2164 (PAR %); conditions: TBE 2%, pH 7.5, 30 degC, 18 h; TIC peak area ratio percent, LCMS/MS; negative controls 3.061, 2.429
[3] = Experiment 6-1: specificity of rhamnosidases towards other rhamnose residues (C3 saccharide rhamnose, C28 saccharide rhamnose); conditions: TBE 2%, pH 7.5, 30 degC, 18 h; LCMS/MS; negative controls 0.18, 0.17
[4] = Experiment 6-1: screening of rhamnosidases for derhamnosylation of saponins in treated bark extract (2%), desglucosyl-QS-17 2134 to QS-21 1988 (PAR %); conditions: TBE 2%, pH 7.5, 30 degC, 18 h; TIC peak area ratio percent, LCMS/MS; negative controls 2.719, 2.158

Molecule	QS-17 (PAR %) [1]	Peak57 (PAR %) [2]	ratio PP/QS-21 [3]	Peak75 (PAR %) [4]
991 (protein, Spirosoma linguale) MKFARLNTLTVWLITSFITVSFTISEAISADLTPVNLRTEYKRNPVVDVDKPRLSWELTATGRGQIQTAYQILVASSAALLNAEKADLWQSAKVAGNATNQIEYSGKTLLSRTVCYWKVRSWDKNGQPGPWSAVATWEMGLLTKADWKADWIGNDLTALGKGKTYHLPPSPFFRKEIQLTAPVKKARLYVTSLGLYEYQINGKRIGNDYFTPGWTDYNKRVYYQTYDVTADVKPGKNALGAILADGWYAGYLGYALLVGNPVVKNFYGNVPLLKAQLEIEYTNGKTETIATDQSWKTSHGPILEADILNGETYNANLAFDNWSKTGFNDAGWKNSTIFPDKPDRQLEAYPGNPVRVFQELKAKTVTPKAGGHYLFDLGQNFAGMVRLRVKGNKGDTIRLRFGEVLFPNGDIMTENLRKARATDTYILKGDPQGETWTPKFTYHGFQYVDVAGFKSAPGLDAITGIVLTSATPETGSFETDNKLINKLYQNIVWTQRSNYVEVPTDCPQRDERLGWTGDAQAYVQSATFNNDISAFFTKWLVDLNDAQRPDNAYPIYAPAPNVRKTDTYSPGWSEAGIICPYTIYKTYGDTRVIQKFWPNMVAYLKFMEAKSQGTYVYKEGSFAEVSPKGGFGDWLSVGKKTPPDMLATLYFGYAASMMADMAKAIGKPDEATYYTTMFTKIKQAFRAHYTDETGRFKTNSAAYGNGEGYVDGEMGFEGHTQTAYANAIYMNMIAPDLTPKAGNWLVDLIKANDNKLSTGFLGVKPLLPSLSMTGHSNEAYKLLLSTEYPSWGFEVVNGANTIWERWNSYIKGKGFENNAGMNSFNHYAFGSVNEWLFGNAAGIKAAEAGYRTFIIRPELAPQGINFVNASYRSINGTIVSSWKKEGNRVRMKVVVPANTTATVFIPITKPDSVLESNKALTASQDIRVIGARDGYLQVTVGSGTYQFSAVN	5.084%	3.443%	0.17	2.453%
1012 (protein, Bacteroides thetaiotaomicron) MKSRLKQQIFAISLLACTAISPANALQTHLLREQFQNPSDEAKPWTFWYWMFGAVSKEGITADLEAMKRAGLGGTYLMPIKGIKEGPQYNGKAQQLTPEWWEMVRFSMEEADRLGLKLGMHICDGFALAGGPWMTPKESMQKIVWSDTIVDGGKIKGLHLPQPEAYEGFYEDISLFALPVKEEAADVMPAQITCANIATGNHIDIKKTVNMDDAGVIRSSYPCYIQYEYEQPFTCRNIEIILSGNNYQAHRLKVMASDDGVNYRLVKQLVPARQGWQNTDENSTHAIPATTARYFRFYWTPEGSEPGSEDMDAAKWKPNLKIKELRLHREARLDQWEGKAGLVWRVASSTKKEEIGEQDCYALSQIINLTDPFKNSPSDNFKERTLTATLPKGKWKLLRMGHTATGHTNATAGGGKGLECDKFNPKAVRKQFDNWFAQAFVKTNPDVARRVLKYMHVDSWECGSQNWSDTFAAEFRKRRGYDLMPYLPLLAGIPMESAERSEKILRDVRTTIGELVVDVFYQVLADCAKEYDCQFSAECVAPTMVSDGLLHYQKVDLPMGEFWLNSPTHDKPNDMLDAISGAHIYGKNIIQAEGFTEVRGTWNEHPGILKALLDRNYALGINRLFFHVYVHNPWLDRKPGMTLDGIGLFFQRDQTWWNKGAKAFCEYITRCQSLLQYGHPVADIAVFTGEEMPRRSILPERLVPSLPGIFGAERVESERIRLANEGQPLRVRPVGVTHSANMSDPEKWVNPLRGYAYDSFNKDALLRLAKAENGRMTLPGGASYKVLVLPLPRPMNPDPAALSPEVKQKINELKEAGILIPSLPYKEDDFSSYGLERDLIVPENIAWTHRQGEQGDIYFIANQLEETRTFTASMRIDGRKPECWNPVTGEINADIPYEQKSHRTEITLTLAPNESVFIVYPAEEDDKETSEKERKEKKDSVKEASETGLEATEYTVTFTANGKTIQRQELFDWSKEEDEQIRYYSGTAVYKTTFRWKSKVKEDQQVYLNLGKVCDLATVRVNGIDCGTIWTAPYRADITAALKKGVNELEIEVTNTWANALKGADEGKAPFDGIWTNAKYRRAENTLLPAGLLGPLNFDVANKNK	5.068%	3.249%	0.16	2.610%
1020 (protein, listed as Rhodonellum psychrophilum) MKSLSKILTTVTLLLAVFACEKKPAEIVLFSMMDGVEGLSGKTEYLASPYVTAGDRVYMVGHQDGSFPDLGWHVEGEMGGIWNHPIKLMDGFTNAIEIEGNRFCLDNASAFINYPFANKHEFKNSVPGLEVERFQFVPDGKQGLVIEYLFKNVDKSKKSFVFEFDGHTDLMPVWLGDRAGMIDHVDNLVFDDQRQAWRGKDEGNEWYVLFGANQTASHSQGDSSLCNYFPQGKGKSAKLSYEMELSANGEGSLKFFIAGSYSGLDDVQKTFDLIKTHPETFLKDKRTNYDRIASLSKITIPDKELEKTFEWVKYNTEWLVRDIPEVGRGLGAGMPDYPWWFGVDNEYTLKGAIATGRKDLVYATVDLIHKLSVQENDNGKIVHEVSTNGVVFNPGNINETPQFASLIWYVYQWTGDKAFLEKYYPTIKKGLVWLMEENDKDGNLFPDGYGMMEIHGLESEMIDVAVYTQKAFADAAQMALLMAEPEVARSYQQTADLMKAKINTDFWVESANSYADFIGTAAETFPLVDAAIIRADTLGKPWAVEELKLLRKKLSTYPRNKKQGFVLFHNWVVNTPMEMGIADPEKAIKALDKGSKFVNPFGVFVTGIDRDEASQSEDGSFTGSKVFSYTGAVMTLPTGVQAISENNYGRPDQALAYLQMMVKSFGFALPGSIYEVSPDYGMMAQAWNLYSFGVPIVTQFFGIQPDAGNKVIHISTQMPSDWDSAKIEKVLIGDNVLTLSFLRVEGEIQLQINQTKGDWQIDFVFPTGKYNVWKVGGKEVEKTRVGNQEVFRTSGTSISASFK	5.058%	3.288%	0.17	2.360%
1004 (protein, Bifidobacterium moukalabense) METQVIKPIAVGDLQITRFTIEHFPGDALGIPTATPRMNWTYSRAVPDGSQILLKISRRVPGSPAKEECTYLPPEDNVLVPWQFTPLASREEVFATVQLVSAAHKPLSDPSATLHFEAGLMQEYEHVADFVGPSWAEPETDHRHLPLIRTEIAIKAKPKRARLYLSALGLVEAEINGVKIGNDALIPGWTNYEQRVQCWTYDVTGELNEGANAMGFWLGDGWYRGRLGFDGGYVNYYGDRLGVFAQLEVEYEDGGIEHVYSNAWDRQWKASLGPIVCSDLCEGERYDARLEQPGWSEPGFDDSSWKPVAEIFYDPAKIENPDTSPVRAQEINEPVSITRTGDTPDGRGIWLVDFGQNCTQRIHLHVKGLEAGQSVELHHVEVLEPNGEIATRTLRRGQQHDIYTSNGTDAWWEPRFAMHGFRYAQIEGVAGELTAADIECHVYHSVMDRAGELETSNPLLNRLHANALWSMRSNFVSVPQDCPQRDERMGWTGDICLFAPTAAYLYDVYGFLKSWLKDVRADQVKWGTVPFYVPFIPLGGWAHPQAISTWGDSAVEVPWVLYMESGDPQILADSYDLSRDWIDEVAGYLSPDGVWDRRPDYVLGQLGDWLDPTAPPDDPTQAMTEKELVATAFFARSCAQAEQIARILGNNEDAVRFGDLRRHVTSGFLARFTNLDGTMTSDTQCAYALAIAFGLLDGEPVRRVKAGNRLAKLVRESGGKVSTGFAGTPFVLPALTMTGHNEEAYGLLLSEECPSWLYQVKMGATTTWERWDSMRPDGSLNPGGMTSFNHYALGSVAEWMHAHIGGLEAIEAGWKRFRVAPVIGGGLDHASTSHVTPYGKASVAWKTSAEGVELDVTVPIGATAVVELPDHEPTELAGGTHHLVVAL	5.076%	2.942%	0.16	2.553%
1028 (protein, listed as Formosa agariphila) MKYNKLLFSLLLLAVFCFSCKEEQKLQTSLDFDKVLLNAKSNPIAIESESPLFSWIIKAEGFGKSQSAYHILVASSLDKLDETHADVWNSNKVESSKSTFVKYEGKELKAATRYYWKVKVWDKSNQESNWSEPQYFQMGLLDESNWGEAKWITLTNDTRTSEYRFREYKTGRMEQPIQVDGFAASYFRNKINLNKEVDNAQVYICGLGYYEFFLNGEKVGDHVLDPAPSNYDKQAYYVNYDITEQLNSGENALGIILGNGFYGQNISWKNDPESDRDLAYGPPTVRVLLKLKYKDGTESEFFSDETWKESTGPIVFNNIYGGDTYDARFELGDWTSTNYDDSSWGFAKETAPEIKNISAQQIPAIKKLQDYEPQNVFKGSDGEWIVDFGQNIAGWVKLNVSEKEGQLIEVITTEALLTNGRDIFPGSTGGGANGMAQIYQYICKGDGQESWEPKFSYHGFRYAKIKGVSTKPDADMIKAVLVATDIQETGSFECSDDLFNKMHNISKWTIVDNVHGIPEDCPHREKCGWLGDAHAFCEYALYNYDMYDFYKKYMEDIRTQMLPTKGHNNPELKFQVPTMIAPGKRTSSYAKIDWGVATMYLPWYNYLYYGDDAIVNEYYPEMKDLTNFYLNFKGENGIMQDGMGDWCPPRWDRRTNPEAMECDPIISANAYFYDVLGIMETFAKMNNDGAFQSEMKAEKEALKDAFNKAFLVEIPNTDFKWYQSQTATVQALQFGMVPEEEIENVVNGLEYDIVEVKGGHHSTGIHGNRYIYTVLSKYGKADLAYRILTTPDFPSQTYIMNSGFTTWPERQFEWETMEGPTNSLNHPMHSGFSAYFFESLGGIKSSTKEAGYKQFIVNPEFPSQITQTKVSVPTPYGDIKNDWSFEEGKLSMTLEIPFNTEANLVLNQAELESLIINGKTFQNLQKNTKSVTLQGSNVILGSGKYKILYNKR	5.081%	1.993%	0.15	2.885%
